Results on 4 molecules are retold here after US20200316121A1 (published 2020).

Numbering of substitutions follows the chain as printed.

Common to all, as to experiment: activation reporter or marker
Assay [1] has as its target T1, p53 R248W peptide on HLA-A*68:01 (human).
T1 peptide: SSCMGGMNWR

For assay [2], the target named is T2, p53 Y220C peptide on HLA-DRB1*04:01:01 (human).
T2 peptide: RNTFRHSVVVPCE

Assay [3] addresses T3, p53 wild type (Y220) peptide on HLA-DRB1*04:01:01 (human).
T3 peptide: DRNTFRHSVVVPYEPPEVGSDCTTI

B1: 4266-TCR2 (TCR, V domains shown)
Valpha: GQNIDQPTEMTATEGAIVQINCTYQTSGFNGLFWYQQHAGEAPTFLSYNVLDGLEEKGRFSSFLSRSKGYSYLLLKELQMKDSASYLCAVYTGGFKTIFGAGTRLFVKA
Vbeta: EAGVAQSPRYKIIEKRQSVAFWCNPISGHATLYWYQQILGQGPKLLIQFQNNGVVDDSQLPKDRFSAERLKGVDSTLKIQPAKLEDSAVYLCASNLGGGSTDTQYFGPGTRLTVL
In the case of B1, the binding result in assay [1] is recorded as “recognises”.

B2: 4266-TCR4 (TCR, V domains shown)
Valpha: GQNIDQPTEMTATEGAIVQINCTYQTSGFNGLFWYQQHAGEAPTFLSYNVLDGLEEKGRFSSFLSRSKGYSYLLLKELQMKDSASYLCAVYPGGSQGNLIFGKGTKLSVKP
Vbeta: B1 Vbeta with N95S, G98T
As for B2, in assay [1], the binding result is “recognises”.

B3: 4266-TCR3 (TCR, V domains shown)
Valpha: B2 Valpha with V90F, P92Y
Vbeta: GAGVSQSPRYKVAKRGQDVALRCDPISGHVSLFWYQQALGQGPEFLTYFQNEAQLDKSGLPSDRFFAERPEGSVSTLKIQRTQQEDSAVYLCASSFGSGSTDTQYFGPGTRLTVL
B3: the binding result in assay [1] is recorded as “recognises”.

B4: 4259-F6-TCR (TCR, V domains shown)
Valpha: QKEVEQNSGPLSVPEGAIASLNCTYSDRGSQSFFWYRQYSGKSPELIMFIYSNGDKEDGRFTAQLNKASQYVSLLIRDSQPSDSATYLCAWNSGGSNYKLTFGKGTLLTVNP
Vbeta: NAGVTQTPKFRVLKTGQSMTLLCAQDMNHEYMYWYRQDPGMGLRLIHYSVGEGTTAKGEVPDGYNVSRLKKQNFLLGLESAAPSQTSVYFCASSYSQAWGQPQHFGDGTRLSIL
As to B4, the binding result in assay [2] is recorded as “recognises”; in assay [3], “no recognition”.
